Assay results: publication PMC6591170

Biological target: human alpha-thrombin (Homo sapiens, UniProt P00734;P00734 315-363;364-622)
Experiment: ITC; ITC in PBS (10 mM phosphate, 2.7 mM KCl, 137 mM NaCl), pH 7.4, 22 °C; ODN 25 or 100 µM into thrombin 2.5 or 10 µM

| Binder | Kd |
| --- | --- |
| AA (structured_DNA, 3'-3' phosphodiester inversion joins the two listed segments covalently (both written 5' to 3'); one molecule, not a duplex) DNA 1: GGTTGGTGTGGTTGGA DNA 2: GGTTGGTGTGGTTGGA | 10 nM |
| GGTTGGTGTGGTTGG (structured_DNA) [TBA] | 8 nM |
